Assay results: the supplement of paper PMC9170038

Test system: K4 kissing-loop RNA reporter
Experiment: apparent KD of K4 kissing-loop reporter; higher = weaker reporter binding
Conditions: Eterna round: R107
Procedure: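 RNA-MaP round R107: designed RNA switches with theophylline, tryptophan, arginine or FMN aptamers are transcribed on-chip within common flanks. They are titrated with a labelled K4 kissing-loop RNA reporter in RNA-MaP buffer (100 mM Tris pH 7.5, 80 mM KCl, 4 mM MgCl2), without ligand or with the indicated ligand. Median apparent KD per design.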

[1] = input ligand: theophylline 20 uM
[2] = input ligand: tryptophan 2.4 mM
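Further: bound reporter read as fluorescence of individual clusters on recovered sequencing chips by microscopy, with normalized cluster intensities fitted with a binding model.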

Sequence | apparent KD of K4 kissing-loop reporter (input ligand: FMN 200 uM) [nM] | apparent KD of K4 kissing-loop reporter (input ligand: arginine 13.2 mM) [nM] | apparent KD of K4 kissing-loop reporter (input ligand: none) [nM] | apparent KD of K4 kissing-loop reporter [1] [nM] | apparent KD of K4 kissing-loop reporter [2] [nM]
AGACGCCAGUCGGCCGCCACUCACAGCAGUGAUGUUGCUGAGAAUCUAGAAGAGUGAUGUUCUUAGAGGACCGGGACUCCAGUCG [Same State Tryptophan B GF 7] | 354 | 363 | 383 | 311 | 306
AGACUACCACACUGUCAAUAGACAGUGAAUUAGGAUAUGCUGAUAAGCAGAAGGAGUGAUGUUCCGAGGUAGUCAAUAAAAUAAU [FmnAX 13 U30+G66] | 220 | 204 | 216 | 283 | 211
AGACUACCACACUGUCAAUAGACAGUGGACUAGGAUAUGCUGAUAAGCAGAAGGAGUGAUGUUCCUUGGUAGUCAAUAAAAUAAU [FmnAX 13 G28+U67] | 308 | 269 | 253 | 335 | 265
AGACUUCACCGAAGGAGCGACGUAGCCUAGUGAUGUUAGGCACGAGAGAAAUCUCGUGUACGUCAGGUAGGUCGCGGUGAAGUCA [Omei KL Arginine B SS C v5] | 990 | 630 | 961 | 827 | 1040
AGAGAUAUAUGAGGAUAUGAGUUAGUUAAUGAGUGAGUUUUAGUGUUGUUUGGUUAGUGAUGUUAUUUAGAAGGCGUGAGUGAUG [ttytmullin] | 98.8 | 75.2 | 74.9 | 106 | 75.9
AGAGGAAAUAGAAGGAGCGGCGCCAGUGAUGUUGGAUGCCGCGGGUGAAUCAGGUCAUAGUGCCAGGUAGGUCGCUAUUUCAGCG [Larebeve] | 177 | 112 | 141 | 161 | 138
AGAUAGGGCUGAAGGAGCGUCGGAAAAGAAAAGAUGAAAUCCAGUGAUGUUGGAUAAAUCCGACAGGUAGGUCGCAGUUUUAUGA [#01 K4 Arginine B Same State] | 126 | 129 | 133 | 161 | 120
AGCAGUCCAGGAUCGAAAGAUCCUGAGGUCCGAGGACCGGUACGGCCGCCACUCGGAGUGAUGUUCCGAAGACUGCAAAAUAAAA [#SwitchBubble 5] | 302 | 236 | 108 | 135 | 105
AGCAUUAUCAGAAGGAGCGUGUAUAAAUCAAUAGUAUUGUAUUCGAGUGAUGUUCGUAAUACACAGGUAGGUCGCUGAUAUUGCA [JR_ExcArginiB_Sub002] | 182 | 172 | 170 | 175 | 161
AGCAUUUUCAGAAGGAGCGUGAAUUAUUCUUAAUUAUAUUAUACGAGUGAUGUUCGUGUUUCACAGGUAGGUCGCUGAUAUAGCA [JR_SSArginiB_Sub004] | 51.4 | 90.3 | 47.7 | 98.3 | 45.5
AGCGAUGUUUUCUCUAAGAGUGAUGUUUUUCGAGGACCGGUACGGCCGCCACUCGAAUAAAGUGUGCGGUAGUGAGCUGUUGACA [#18 K4 Tryptophan A Exclusion] | 710 | 550 | 747 | 580 | 718
AGCGUCCCUACGGCCGCCACUGGGAGUGAUGUUCCCAGGUUAGGCCUGAGGAUACUAAGGAUCGCCAGGACCGGGUAGCGACCAU [Azaonbe] | 88.5 | 81.1 | 80.3 | 69.2 | 92.3
AGCUCAGAGUGACUCGAUAAGAGUCACAAACGAGGACCGGUACGGCCGCCACUCGAAAUAACGAGAGUGAUGUUCUCACUGAGCA [FiskerMod 11 - Jieux - Same State Tryptophan A] | 1150 | 635 | 1260 | 808 | 378
AGCUCAGAGUGACUCGAUAAGAGUCACAAACGAGGACCGGUACGGCCGCCACUCGAAAUAACGAGAGUGAUGUUCUCGCUGAGCA [#SwitchBubble 1 #StaticStem #K4Late] | 1160 | 517 | 1000 | 285 | 340
AGCUCAGAGUGACUCGAUAAGAGUCACAAACGAGGACCGGUACGGCCGCCACUCGAAAUAACGAGAGUGAUGUUUUCGCUGAGCA [FiskerMod 6 - Jieux - Same State Tryptophan A] | 935 | 630 | 857 | 660 | 541
AGGAGCGUGGGAUGGAAAUCGCACGCUCCUCGAGGACCGGUACGGCCGCCACUCGCUCGCGCCGAGUGAUGUUCGGCCGGCGAAC [#2 Same State - Tryptophan A Attempt #11 (HarryS)] | 131 | 111 | 451 | 178 | 482

Sequence | apparent KD of K4 kissing-loop reporter (input ligand: FMN 200 uM) [nM] | apparent KD of K4 kissing-loop reporter (input ligand: arginine 13.2 mM) [nM] | apparent KD of K4 kissing-loop reporter (input ligand: none) [nM] | apparent KD of K4 kissing-loop reporter [1] [nM] | apparent KD of K4 kissing-loop reporter [2] [nM]
AGGAGCUGUCGACAAAAGUCGACAUAAACCAAGGAUAUGACGAAAGUCAGAAGGUGGUCAUAAGACCAGUGAUGUUGGUAGCUCC [FmnA 10 #SwitchBubble #K4Late] | 952 | 259 | 466 | 488 | 338
AGGAGUGAUGUUCCUACAUAGACGGUCCAACGAGGACCGGUACGGCCGCCACUCGCGACCCAGUGAUGUUGGGAUUCACCGUACA [Exclusion Tryptophan A Gf 14] | 723 | 753 | 818 | 836 | 812
AGGAGUGAUGUUCCUACAUAGACGGUCCGACGAGGACCGGUACGGCCGCCACUCGCGUCCCAGUGAUGUUGGGAUUCAACGUACA [Exclusion Tryptophan A Gf 15] | 120 | 150 | 139 | 149 | 122
AGGGAUGUUAAAGGAUAUAGAAAGUGAUGUUAGAAAGUGAGUGAUGUUGAUGUUAGUGAUGUUAUGUUAGAAGGUUAACAAAACG [a] | 256 | 149 | 211 | 192 | 161
AGGGCUGAGAGCGAUACCAGCGGAUACUAUAUGGUCCAAUAGAGUGAUGUUUUAUAAAGCCGCCCUUGGCAGCGCAAUCUAUUAG [XTheo-B4] | 1330 | 423 | 501 | 982 | 453
AGGUUUUACGGAGGAUAUGCACUGAGGAGGAGAAUAUAGUGAUGUUAUAUAAGAGGAAGGAGAAGAGUAGAAGGCCGUGAGGUUU [SSFMNB.M] | 136 | 130 | 149 | 204 | 98.6
AGGUUUUGAUUAGGAUAUGCACUGAGGAGGAGAAUAUAGUGAUGUUAUAUAAGAGGAAGGAGUAGAGUAGAAGGGAUUGAGGUUU [SSFMNB.R] | 249 | 164 | 199 | 172 | 188
AGUAAUGAGUGAUGUUCAAAUAGUAAGGAUACCAGUAAUUCAAAAUGCCCUUGGCAGCUUAACGCUACCAAUAGAUAAAUAAUGG [Theophilline A V2 (+2A)] | 134 | 166 | 144 | 172 | 96.8
AGUACAAUGGCGGCCGCCACUCAACAGCAGAUCAAAGAUCUGCUUCACUCAGUGAUGUUGAGUGAGAGGACCGGGCCUUUGUACA [Omei KL Tryp B SS B v4] | 793 | 614 | 783 | 853 | 216
AGUAGAGCAUCAGAUACCAGACAGAACUGAUGGUAAGGAGUGAUGUUCCUUAAUCAGCUUGUCCCUUGGCAGCUGAUAGUAGUCA [#14 K4 Theophylline B Same State] | 388 | 417 | 431 | 348 | 383
AGUCCACUCUAAAGAGUGGACCUAAGGGAUACCAGUGAUGUUGGUCACCCUUGGCAGCCCAGGGCCCGGGAUAAACCCGGGCCCA [#09 K4 Theophylline A Exclusion] | 120 | 100 | 113 | 99 | 113
AGUGAACGAGCGGCCGCCACUAACUGAGUGAUGUUCGUGAGUAGUGCUGUUCUCAUGAUUGUUUUUAGGACCGGGUUCGAUGUUG [ttbjmullin] | 483 | 329 | 391 | 431 | 360
AGUGAUGUAGUGUGUUGUUUGUGAAGUGAUCGAGGACCGGUACGGCCGCCACUCGAGUGAUGAGUGAGUGAUGUUUGUUUAGUGG [#18 K4 Tryptophan A Same State] | 379 | 283 | 376 | 412 | 303
AGUGAUGUAUGGCGGUUUGUCACUUAUUAUCAGGAUAUAUAAACAAAUAGAAGGGAUGGCGGAGUGAUGUUCCGCCGGCCGCCAU [FMN A Exl V5] | 172 | 140 | 150 | 157 | 166
AGUGCACUGGCAGGAUAUGUACAGUGAUGUUGUGUAUGUCAGCAAGUCAAAGACUUGCUCUUCUGUGCAGAAGGGCCUGUGUACA [#05 K4 FMN B Exclusion] | 442 | 526 | 668 | 532 | 534
AGUGCACUGUCAGGAUAUAUACAGUGAUGUUGUGUAUGUCAGCAAGUCAAAGACUUGCUCUUCUGUGUAGAAGGGACUGUGUACA [Omei KL FMN B Exc A v4] | 157 | 118 | 133 | 117 | 133
